In data set [1] the test system is eYFP-S1PDZ1-MAGI3_3 and eYFP-S1PDZ1-IL16_1 in MCF-7 cells. Put plainly: Pharmacological treatment, peroxisomal enrichment of eYFP-S1PDZ1-MAGI3_3 and eYFP-S1PDZ1-IL16_1. It is filed as cell-based. The conditions noted are these: wortmannin 500 nM, LY294002 50 µM, ionomycin 10 µM.
Data set [2] deals with eYFP-S1PDZ1-CASK in MCF-7 cells. The data set is described as follows: Pharmacological treatment, plasma membrane localization of eYFP-S1PDZ1-CASK. Type of data set: cell-based.
The test system of data set [3] is eYFP-S1PDZ1-MPDZ_7 in MCF-7 cells. The data set is described as follows: Pharmacological treatment, plasma membrane localization of eYFP-S1PDZ1-MPDZ_7. It is filed as cell-based. The conditions noted are these: ionomycin 10 µM.
The test system of data set [4] is eYFP-S1PDZ1-FYVE in MCF-7 cells. Put plainly: Pharmacological treatment, localization of eYFP-S1PDZ1-FYVE. It is filed as cell-based. The conditions noted are these: wortmannin 500 nM or LY294002 50 µM for 30 min, YM201636 800 nM for 2 h.
The next data set concerns the target T1, CASK/I517W (human, UniProt O14936 489-564).
T1 chain: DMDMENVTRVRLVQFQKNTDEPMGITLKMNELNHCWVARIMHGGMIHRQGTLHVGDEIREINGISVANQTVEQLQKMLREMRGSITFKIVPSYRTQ
Put plainly: other fluorescence titration; equilibrium titration of peptide into Trp-engineered PDZ domain kept constant at 3 µM, followed by intrinsic tryptophan fluorescence; 25°C, 25 mM HEPES, 150 mM NaCl, pH 7.2, 1 mM beta-mercaptoethanol. The conditions noted are these: both partners purified.

Data set [5] concerns the target T2, DFNB31_1/K206E (with Y167W) (human, UniProt Q9P202 136-224, K206E | Y167W).
T2 construct: first PDZ domain of human DFNB31 (whirlin); predicted PDZ domain with ten amino acids added on each side
T2 sequence: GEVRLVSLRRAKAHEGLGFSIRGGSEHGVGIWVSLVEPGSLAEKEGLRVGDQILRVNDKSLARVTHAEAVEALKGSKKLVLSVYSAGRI
Described as above. The conditions noted are these: both partners purified.

For data set [6], the target named is T3, DFNB31_1/R145E (with Y167W) (human, UniProt Q9P202 136-224, R145E | Y167W).
T3 construct: first PDZ domain of human DFNB31 (whirlin); predicted PDZ domain with ten amino acids added on each side
T3 sequence: T2 sequence with R10E, E71K
The data set is described as above. The conditions noted are these: both partners purified.

In data set [7] the target is T4, DFNB31_1/K209E (with Y167W) (human, UniProt Q9P202 136-224, K209E | Y167W).
T4 construct: first PDZ domain of human DFNB31 (whirlin); predicted PDZ domain with ten amino acids added on each side; The text once prints R209E for this mutant; also called R209E (once in the text)
T4 sequence: T2 sequence with E71K, K74E
The data set is described as above. The conditions noted are these: both partners purified.

A further data set has as its target T5, DFNB31_1/Y167W (human, UniProt Q9P202 136-224, Y167W).
T5 construct: first PDZ domain of human DFNB31 (whirlin); predicted PDZ domain (Interpro, PFAM, SMART) with ten amino acids of the original protein added on each side; also called first PDZ domain of DFNB31 with a Trp probe
T5 sequence: T2 sequence with E71K
The data set is described as above. The conditions noted are these: both partners purified.

The target in data set [8] is T6, DFNB31_1/K212E (with Y167W) (human, UniProt Q9P202 136-224, K212E | Y167W).
T6 construct: first PDZ domain of human DFNB31 (whirlin); predicted PDZ domain with ten amino acids added on each side
T6 sequence: T2 sequence with E71K, K77E
The description is as above. The conditions noted are these: both partners purified.

The target in data set [9] is T7, DFNB31_1/R144E (with Y167W) (human, UniProt Q9P202 136-224, R144E | Y167W).
T7 construct: first PDZ domain of human DFNB31 (whirlin); predicted PDZ domain with ten amino acids added on each side
T7 sequence: T2 sequence with R9E, E71K
The description is as above. The conditions noted are these: both partners purified.

In data set [10] the target is C-terminal peptide of usher (FTDTHL). Put plainly: Equilibrium peptide binding titration followed by intrinsic tryptophan fluorescence. The conditions noted are these: for Kd: Y167W mutation introduced as fluorescent probe, protein 3 µM, 25°C, pH 7.2. From the text: Given the overall low PtdInsPs specificities, and often modest PtdInsPs affinities, it is unlikely that PtdInsPs bindings alone target the PDZ domains to their defined subcellular compartments. Plausibly, peptide interactions are also involved in controlling the subcellular targeting. To address the interplay between PtdInsPs and peptide-binding we chose DFNB31_1 and CASK as models, taking two of the PDZ domains with well-defined cognate peptides. Cognate peptide ligands were the C-terminal peptides of usher (FTDTHL) for DFNB31_1 [50] and the TKEFYA peptide of syndecan-2 for CASK [51]. We measured the PDZ-peptide affinities by a fluorescence-based approach (Fig. 4E), by engineering Trp into the PDZ scaffolds and following the interactions by changes in intrinsic fluorescence, a strategy previously established for other PDZ domains (KD-values: DFNB31_1/Y167W for FTDTHL 46±6 µM; CASK/I157W for TKEFYA 280±20 µM), [52]. We then determined the apparent PtdIns(4,5)P2 affinities in presence of a (close to) saturating concentration of respective peptide (1 mM). The FTDTHL peptide appeared to compete for DFNB31_1-PtdIns(4,5)P2 interactions (KD ^PtdIns(4,5)P2 in presence of peptide >30 µM, Fig. 4F), which might indicate overlapping binding sites. […] We have previously reported on competitive binding by peptide and PtdIns(4,5)P2 with CASK [13]. However, in these experiments the peptide was linked to sepharose beads and PtdIns(4,5)P2 was present on micelles, which made it more difficult for the PDZ domain to simultaneously interact with the two ligands.
(§1) Spectrofluorimetric measurements were performed at 25°C in 25 mM HEPES, 150 mM NaCl, pH 7.2 and 1 mM beta-mercaptoethanol in a Carry Eclipse Spectrofluorimeter (Varian). The peptides corresponded to the C-termini of syndecan-2 (TKEFYA) and usher (FTDTHL) and were of high purity (purity >95%, GeneCust), and the experiment were performed and analyzed as described previously. Urea induced equilibrium unfolding experiments were performed using 1 µM of proteins (excitation 280 nm emission 320–380 nm) and the data fitted by a standard two-state model.

Data set [11] in a line: Urea induced equilibrium unfolding followed by fluorescence. Type of data set: physicochemical. The conditions noted are these: Y167W background, ΔGD-N mut − ΔGD-N wt. The procedure:
as §1
The effects of the mutations on the stability were calculated by ΔΔGD −N = ΔGD −Nmut − ΔGD −Nwt, where ΔΔGD-N is the difference between the free energies of unfolding upon mutation.

Data set [12] in a line: SPR equilibrium binding of his-tagged PDZ domains to PtdIns(4,5)P2 liposomes. The conditions noted are these: for Kd: SPR equilibrium analysis, 5% PtdIns(4,5)P2 in DOPC liposomes, 25°C, pH 7.2, read-out: KD app PtdIns(4,5)P2.
Setting [13] is: MCF-7, ionomycin 10 µM, PAO 100 µM, wortmannin 500 nM.

Residue numbers refer to the chain shown, from its start. Names and notes keep the numbering of the source. Where two headings read alike, the source gives them in different places.

Consider `C[C@H](CCC(=O)O)C[C@H](C)C[C@H](C)C(=O)/C=C(\O)[C@H](C)C[C@H](C)C/C=C/[C@@H](C)[C@@H](O)[C@@H](C)[C@@H](O)C[C@@H]1CC[C@@](C)([C@H]2CC[C@@](C)([C@@H](C)O)O2)O1` [ionomycin], for which the “peroxisomal enrichments of eYFP-S1PDZ1-MAGI3_3 and eYFP-S1PDZ1-IL16_1 upon treatment” value (from here on “peroxisomal enrichments”) in [1] was “did not alter”. Besides, the “plasma membrane localization of eYFP-S1PDZ1-CASK upon treatment” value in [2] is recorded as “loss of membrane localization”. The “plasma membrane localization of eYFP-S1PDZ1-MPDZ_7 upon treatment” value in data set [3] was “not”.

As for `Nc1ccc(C(=O)Nc2cccc(-c3nc(N4CCOCC4)c4oc5ncccc5c4n3)c2)cn1` [YM201636], the “localization of eYFP-S1PDZ1-FYVE upon treatment” value in data set [4] is “accumulation of eYFP-S1PDZ1-FYVE at the limiting membranes”.

As to `COC[C@H]1OC(=O)c2coc3c2[C@@]1(C)C1=C(C3=O)[C@@H]2CCC(=O)[C@@]2(C)C[C@H]1OC(C)=O` [wortmannin], the “localization of eYFP-S1PDZ1-FYVE upon treatment” value in [4] was “lost”. Also, in [1], the “peroxisomal enrichments” value is “did not alter”. Further, in [2] (setting [13]), the “plasma membrane localization of eYFP-S1PDZ1-CASK upon treatment” value is listed as “failed to release”.

In the case of `CCCCOc1cc(C(=O)NCCN(CC)CC)c2ccccc2n1` [dibucaine], the “plasma membrane localization of eYFP-S1PDZ1-CASK upon treatment” value in data set [2] (setting [13]) is recorded as “failed to release”.

As for `O=c1cc(N2CCOCC2)oc2c(-c3ccccc3)cccc12` [LY294002, 2-(4-morpholinyl)-8-phenyl-4H-1-benzopyran-4-one], the “localization of eYFP-S1PDZ1-FYVE upon treatment” value in data set [4] is on record as “lost”. The “peroxisomal enrichments” value in [1] is “did not alter”.

B1: C-terminal peptide of syndecan-2 (TKEFYA) (peptide)
peptide: TKEFYA
notes: C-terminus of syndecan-2; last six residues; also called TKEFYA peptide of syndecan-2; source: synthetic peptide, bought: GeneCust (purity >95%)
Consider B1, for which the Kd with CASK/I517W turned out to be 280 ± 20 µM.

B2: C-terminal peptide of usher (FTDTHL) (peptide)
peptide: FTDTHL
notes: last six residues; also called FTDTHL peptide; source: synthetic peptide, bought: GeneCust (purity >95%)
In the case of B2, the Kd was 111 ± 8 µM in data set [5]; 71 ± 8 µM in data set [6]; 175 ± 15 µM in data set [7]; 46 ± 6 µM in the data set with DFNB31_1/Y167W; 220 ± 40 µM in data set [8]; 82 ± 3 µM in data set [9].

B3: DFNB31_1/Y167W: DFNB31_1 with Y167W mutation as fluorescent probe (protein)
chain: T2 sequence with E71K
modifications: left off: His6, N-terminal, state not stated
notes: DFNB31_1 with Y167W mutation as fluorescent probe
B3 yielded a Kd in data set [10] of 46 ± 6 µM.

B4: DFNB31_1/R144E: DFNB31_1 PDZ domain mutant R144E (protein)
chain: T2 sequence with R9E, E71K
modifications: left off: His6, N-terminal, state not stated
The molecule B4 returned a ΔΔGD-N in data set [11] of -0.65 ± 0.05 kcal/mol. The Kd in [12] was over 20 µM; in data set [10], 82 ± 3 µM.

B5: DFNB31_1/K206E: DFNB31_1 PDZ domain mutant K206E (protein)
chain: T2 sequence
modifications: left off: His6, N-terminal, state not stated
The molecule B5 gave a ΔΔGD-N in data set [11] of 0.41 ± 0.03 kcal/mol. For the same molecule, the Kd in data set [12] is 8.2 ± 2 µM; in [10], 111 ± 8 µM. Further, the “decrease in peptide binding affinity upon mutation” value in data set [10] (versus DFNB31_1 (Y167W background)) is given as 2 fold.

B6: DFNB31_1/K209E: DFNB31_1 PDZ domain mutant K209E (protein)
chain: T2 sequence with E71K, K74E
modifications: left off: His6, N-terminal, state not stated
B6 had a ΔΔGD-N in [11] of -0.15 ± 0.01 kcal/mol. The Kd in data set [12] was over 20 µM; in data set [10], 175 ± 15 µM.

B7: DFNB31_1/R145E: DFNB31_1 PDZ domain mutant R145E (protein)
chain: T2 sequence with R10E, E71K
modifications: left off: His6, N-terminal, state not stated
As to B7, the ΔΔGD-N in data set [11] is -0.53 ± 0.05 kcal/mol. In addition, the values for the Kd in data set [12] and in data set [10] were 15 ± 5 µM and 71 ± 8 µM, respectively. The “decrease in PtdIns(4,5)P2 binding upon mutation” value in [12] (versus wild type DFNB31_1) is 2 fold.

B8: DFNB31_1/K212E: DFNB31_1 PDZ domain mutant K212E (protein)
chain: T2 sequence with E71K, K77E
modifications: left off: His6, N-terminal, state not stated
For B8, in [11], the ΔΔGD-N was 1.2 ± 0.1 kcal/mol. Further, the values for the Kd in data set [12] and in [10] were over 20 µM and 220 ± 40 µM, respectively.

The values are drawn from article PMC3563628, “Prevalence, Specificity and Determinants of Lipid-Interacting PDZ Domains from an In-Cell Screen and In Vitro Binding Experiments” (PLoS ONE, 2013).
